Source: paper PMC3544317 (2014)
Each block holds one binder with its values, some of them ahead of it.

Assays:
FXa = target: T1, FXa (Homo sapiens, UniProt P00742); test: prothrombin activation rate vs FXa
T1 chain 1: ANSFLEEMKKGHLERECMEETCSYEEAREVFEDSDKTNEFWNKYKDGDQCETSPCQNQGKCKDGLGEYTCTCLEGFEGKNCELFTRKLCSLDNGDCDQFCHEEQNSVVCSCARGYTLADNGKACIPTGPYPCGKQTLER
T1 chain 2: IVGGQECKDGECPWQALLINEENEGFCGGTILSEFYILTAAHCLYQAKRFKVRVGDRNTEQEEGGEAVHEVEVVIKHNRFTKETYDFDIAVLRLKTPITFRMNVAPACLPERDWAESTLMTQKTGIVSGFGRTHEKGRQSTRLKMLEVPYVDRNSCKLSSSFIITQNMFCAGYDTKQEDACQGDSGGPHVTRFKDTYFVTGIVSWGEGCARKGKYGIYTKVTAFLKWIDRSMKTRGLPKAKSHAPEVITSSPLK

FVa (FVa2) [1] = target: T2, FVa (FVa2) (Homo sapiens, UniProt P12259); test: prothrombinase activity titration
T2 chain 1: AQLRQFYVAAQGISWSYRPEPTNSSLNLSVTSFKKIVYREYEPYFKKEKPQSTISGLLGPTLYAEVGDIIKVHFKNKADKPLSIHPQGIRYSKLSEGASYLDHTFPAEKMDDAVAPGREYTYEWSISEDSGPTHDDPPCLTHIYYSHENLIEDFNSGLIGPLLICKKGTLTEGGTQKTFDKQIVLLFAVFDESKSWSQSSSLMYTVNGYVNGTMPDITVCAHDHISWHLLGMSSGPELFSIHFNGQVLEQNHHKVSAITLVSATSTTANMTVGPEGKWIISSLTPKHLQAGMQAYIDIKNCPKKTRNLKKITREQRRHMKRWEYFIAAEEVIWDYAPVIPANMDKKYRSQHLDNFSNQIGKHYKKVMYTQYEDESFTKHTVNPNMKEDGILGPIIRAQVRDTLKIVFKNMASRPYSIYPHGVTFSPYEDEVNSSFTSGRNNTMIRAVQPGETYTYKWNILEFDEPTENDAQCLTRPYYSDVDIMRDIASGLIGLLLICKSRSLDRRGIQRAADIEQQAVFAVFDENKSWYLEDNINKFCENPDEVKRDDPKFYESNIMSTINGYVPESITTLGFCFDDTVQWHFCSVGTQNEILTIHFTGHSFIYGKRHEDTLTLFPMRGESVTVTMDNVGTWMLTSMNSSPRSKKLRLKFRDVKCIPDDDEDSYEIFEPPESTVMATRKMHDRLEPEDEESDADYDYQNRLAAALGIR
T2 chain 2: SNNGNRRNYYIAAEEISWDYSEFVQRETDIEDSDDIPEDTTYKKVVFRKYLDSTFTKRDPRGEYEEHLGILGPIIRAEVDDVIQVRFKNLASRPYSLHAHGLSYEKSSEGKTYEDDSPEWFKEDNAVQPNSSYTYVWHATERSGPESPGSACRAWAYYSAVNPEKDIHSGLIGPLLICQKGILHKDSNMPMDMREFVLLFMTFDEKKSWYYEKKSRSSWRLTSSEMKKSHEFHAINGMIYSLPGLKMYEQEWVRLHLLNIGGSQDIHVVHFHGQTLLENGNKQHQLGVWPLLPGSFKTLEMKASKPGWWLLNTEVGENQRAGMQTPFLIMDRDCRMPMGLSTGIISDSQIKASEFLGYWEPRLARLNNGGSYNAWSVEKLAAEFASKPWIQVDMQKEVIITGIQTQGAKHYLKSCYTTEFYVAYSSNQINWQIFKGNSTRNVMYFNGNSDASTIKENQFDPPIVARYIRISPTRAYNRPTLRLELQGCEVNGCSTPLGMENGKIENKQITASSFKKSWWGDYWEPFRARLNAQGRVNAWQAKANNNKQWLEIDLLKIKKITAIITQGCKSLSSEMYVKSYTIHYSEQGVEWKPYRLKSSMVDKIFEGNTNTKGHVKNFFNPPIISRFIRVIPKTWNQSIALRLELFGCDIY

FVa (FVa2) [2] = target: T2, FVa (FVa2); test: global fit of activity
FVa (FVa2) [3] = target: T2, FVa (FVa2); test: global fit of activity, dimer competition model
FVa (FVa2) [4] = target: T2, FVa (FVa2); test: prothrombinase activity titration
FVa (FVa2) [5] = target: T2, FVa (FVa2); test: prothrombinase activity titration
DEGR-FXa = target: T3, DEGR-FXa (Homo sapiens, UniProt P00742); test: fluorescence of active-site-labeled FXa
T3 chain 1: T1 chain 1
T3 chain 2: T1 chain 2

- Kd (FXa): 16 nM
- Kd (FVa (FVa2) [1]): 43 nM
- Kd (FVa (FVa2) [2]): 0.43 nM
- Kd (FVa (FVa2) [3]): 0.32 nM
- Kd (FVa (FVa2) [4]): 2.2 nM
- Kd (FVa (FVa2) [5]): 20 nM
B1: FXa (protein)
chain 1: T1 chain 1
chain 2: T1 chain 2
modifications: C6PS, 5 mM Ca2+

- Kd (DEGR-FXa): 600 nM
B2: DEGR-FXa (protein)
chain 1: T1 chain 1
chain 2: T1 chain 2
modifications: DEGR active-site label, C6PS, 3 mM Ca2+

- Kd (FVa (FVa2) [1]): 8 nM
- Kd (FVa (FVa2) [4]): 1.7 nM
B3: FXa (protein)
chain 1: T1 chain 1
chain 2: T1 chain 2
modifications: C6PS, 3 mM Ca2+
